Consider 30 molecules from patent publication US20210395381A1 (OSSIANIX, published 2021).

Holding throughout (assay): phage ELISA
Test [1] concerns the target T1, recombinant mouse TfR-1 (mouse, UniProt Q62351 89-763).
T1 construct: Bought recombinant protein; also called mTfR1
The procedure: After the third round of selection, instead of pooling bacterial colonies, individual phagemid clones were grown in 1 ml of 2TY medium containing glucose and ampicillin in 96-well blocks and used to rescue the phages. After an overnight culturing, bacteria were spun down and an aliquot of the phage supernatant was sent for Sanger sequencing (Genewiz); VNAR CDR3 sequences were identified using BioEdit (a sequence alignment editor). Another aliquot was blocked with 2.5% milk for phage ELISAs. High-binding ELISA plates (Greiner) were coated with 1 μg/ml of recombinant human or mouse TfR-1. The plates were then blocked with 2.5% milk in PBST. Blocked phages were added to the blocked plates and the VNAR-phage clones binding to the antigens were detected with HRP-labelled anti-M13 coat protein antibodies (Sino Biological), and chromogenic TMB substrate (KLM)
T1 sequence (Q62351 89-763 limits assumed): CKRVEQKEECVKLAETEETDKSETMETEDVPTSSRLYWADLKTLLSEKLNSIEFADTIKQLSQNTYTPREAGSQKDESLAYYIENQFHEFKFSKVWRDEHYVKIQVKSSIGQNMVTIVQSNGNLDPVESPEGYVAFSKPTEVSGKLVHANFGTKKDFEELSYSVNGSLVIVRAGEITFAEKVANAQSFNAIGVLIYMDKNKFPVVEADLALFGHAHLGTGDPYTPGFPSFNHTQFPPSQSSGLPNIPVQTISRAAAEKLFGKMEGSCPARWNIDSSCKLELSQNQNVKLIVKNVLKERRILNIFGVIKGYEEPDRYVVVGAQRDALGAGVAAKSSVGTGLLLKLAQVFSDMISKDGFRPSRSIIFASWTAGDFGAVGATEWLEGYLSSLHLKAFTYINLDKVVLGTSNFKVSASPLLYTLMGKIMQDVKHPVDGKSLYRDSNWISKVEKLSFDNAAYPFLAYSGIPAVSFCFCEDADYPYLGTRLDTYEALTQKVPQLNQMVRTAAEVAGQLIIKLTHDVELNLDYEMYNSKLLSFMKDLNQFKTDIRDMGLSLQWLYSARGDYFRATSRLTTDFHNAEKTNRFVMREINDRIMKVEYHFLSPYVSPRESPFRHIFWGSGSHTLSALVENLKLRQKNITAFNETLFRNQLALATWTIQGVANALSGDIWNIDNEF

Test [2] addresses T2, recombinant mouse TfR-1 (mouse, UniProt Q62351 89-763).
T2 construct: Recombinant protein coated at 1 ug/ml in the phage ELISA; also called mTfR1; mouse transferrin receptor-1
T2 sequence (Q62351 89-763 limits assumed): as above

The target in test [3] is T3, recombinant human TfR-1 (human, UniProt P02786 89-760).
T3 construct: Recombinant protein coated at 1 ug/ml in the phage ELISA; also called hTfR1; human transferrin receptor-1
T3 sequence (P02786 89-760 limits assumed): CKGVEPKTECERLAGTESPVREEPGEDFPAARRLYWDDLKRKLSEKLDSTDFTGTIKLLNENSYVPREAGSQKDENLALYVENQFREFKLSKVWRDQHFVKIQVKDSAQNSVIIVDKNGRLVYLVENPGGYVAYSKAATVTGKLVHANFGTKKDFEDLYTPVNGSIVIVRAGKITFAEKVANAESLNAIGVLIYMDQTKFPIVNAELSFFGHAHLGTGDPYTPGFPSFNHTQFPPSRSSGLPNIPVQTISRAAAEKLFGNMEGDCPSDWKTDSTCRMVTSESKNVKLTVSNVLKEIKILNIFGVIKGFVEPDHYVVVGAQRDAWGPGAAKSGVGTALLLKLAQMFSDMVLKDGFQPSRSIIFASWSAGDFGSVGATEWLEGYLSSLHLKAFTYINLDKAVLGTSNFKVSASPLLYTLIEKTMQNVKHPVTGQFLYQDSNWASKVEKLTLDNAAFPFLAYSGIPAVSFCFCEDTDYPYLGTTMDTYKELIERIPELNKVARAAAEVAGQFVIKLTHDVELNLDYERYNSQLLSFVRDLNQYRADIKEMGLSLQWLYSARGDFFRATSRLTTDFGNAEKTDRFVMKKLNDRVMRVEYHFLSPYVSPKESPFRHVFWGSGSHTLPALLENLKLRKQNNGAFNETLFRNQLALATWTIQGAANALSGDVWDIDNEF

B1: Clone 34 (VNAR)
VNAR: PRVDQTPQTITKETGESLTINCVLRDSNCALSSTYWYRKKSGSTNEESISKGGRYVETVNSGSKSFSLRINDLTVEDSGTYRCNVSSNAHCDGRRRDVYGGGTAVTVNA
notes: VNAR on phage
Turning to B1, the binding result in test [1] is reported as “no binding”.

B2: Clone 41 (VNAR)
VNAR: ARVDQTPQTITKETGESLTINCVLRDSNCALSNLYWYRKKSGSTNEESISLGGRYVETVNSGSKSFSLRINDLTVEDSGTYRCKVTCEVALQPYYGQEPTQDVYGGGTVVTVNA
notes: VNAR on phage
In the case of B2, the binding result in test [1] is on record as “no binding”.

B3: Clone 53 (VNAR)
VNAR: ARVDQTPQTITKETGESLTINCVLRDSNCALSSTYWYRKKSDSTNEESISKGGRYVETVNSGSKSFSLRINDLTVKDSGTYRCNVYLQDRPVCSPFNYDVYGGGTAVTVNA
notes: VNAR on phage
Consider B3, for which, in test [1], the binding result is reported as “no binding”.

B4: Clone 51 (VNAR)
VNAR: ARVDQTPQTITKETGESLTINCVLRDSNCALSSTLWYRTKSGSRNEESISKGGRYVETVNSGSKSFSLRINDLVVEDSGTYRCKVSHSGLCQYCHDLEDDVYGDGTAVTVNA
notes: VNAR on phage
In the case of B4, in test [1], the binding result is “no binding”.

B5: Clone 47 (VNAR)
VNAR: PRVDQTPQTITKETGESLTINCVLRDSNCALPSTYWYRKKSGSTNEENISKGGRYVETVNSGSKSFSLKINDLTVEDSGTYRCNVIINPLSCYYLQLQDVYGGGTAVTVNA
notes: VNAR on phage
In the case of B5, the binding result in test [1] was “no binding”.

B6: Clone 8.142 (VNAR)
VNAR: ARVDQTPQTITKETGESLTINCVLRDSNCALPSTYWYRKKSGSTNEESISKGGRYVETVNSGSKSFSLRINDLTVEDSGTYRCKVIAQLHANLRGCNYRKHDVYGDGTAVTVNA
notes: VNAR on phage; Clone 8 framework
Take B6: the figures for the A450 in test [2] and in test [3] were 0.045 A450 and 0.052 A450, respectively.

B7: Clone 8.144 (VNAR)
VNAR: ARVDQTPQTITKETGESLTINCVLRDSNCALPSTYWYRKKSGSTNEESISKGGRYVETVNSGSKSFSLRINDLTVEDSGTYRCKVIAQLSSGHRGCNYRKHDVYGDGTAVTVNA
notes: as for B6
With B7, the A450 amounted to 0.045 A450 in test [2] and 0.05 A450 in test [3].

B8: Clone 8.145 (VNAR)
VNAR: ARVDQTPQTITKETGESLTINCVLRDSNCALPSTYWYRKKSGSTNEESISKGGRYVETVNSGSKSFSLRINDLTVEDSGTYRCKVIAQLSSILQPCYYRKHDVYGDGTAVTVNA
notes: as for B6
Take B8: the A450 came to 0.045 A450 in test [2] and 0.053 A450 in test [3].

B9: Clone 8.147 (VNAR)
VNAR: ARVDQTPQTITKETGESLTINCVLRDSNCALPSTYWYRKKSGSTNEESISKGGRYVETVNSGSKSFSLRINDLTVEDSGTYRCKVIAQLSSILRGCEGDKHDVYGDGTAVTVNA
notes: as for B6
For B9, the values for the A450 in test [2] and in test [3] were 0.045 A450 and 0.052 A450, respectively.

B10: Clone 8.148 (VNAR)
VNAR: ARVDQTPQTITKETGESLTINCVLRDSNCALPSTYWYRKKSGSTNEESISKGGRYVETVNSGSKSFSLRINDLTVEDSGTYRCKVIAQLSSILRGCNYEHHDVYGDGTAVTVNA
notes: as for B6
With B10, the A450 in test [2] amounted to 0.045 A450; in test [3], 0.049 A450.

B11: Clone 8.143 (VNAR)
VNAR: ARVDQTPQTITKETGESLTINCVLRDSNCALPSTYWYRKKSGSTNEESISKGGRYVETVNSGSKSFSLRINDLTVEDSGTYRCKVIAQLHCMLRGCNYRKHDVYGDGTAVTVNA
notes: as for B6
As to B11, the A450 was found to be 0.045 A450 in test [2] and 0.051 A450 in test [3].

B12: Clone 8.146 (VNAR)
VNAR: ARVDQTPQTITKETGESLTINCVLRDSNCALPSTYWYRKKSGSTNEESISKGGRYVETVNSGSKSFSLRINDLTVEDSGTYRCKVIAQLSSILRGCEARKHDVYGDGTAVTVNA
notes: as for B6
On to B12, for which the A450 in test [2] and in test [3] was 0.045 A450 throughout.

B13: Clone 42 (VNAR)
VNAR: ARVDQTPQTITKETGESLTINCVLRDSNCELSSTYWYRKKSGSTNEARISKGGRYVETVNSGSKSFSLRINDLTVEDSGTYRCKVRKALVQSQSCCQPLHRDVYGDGTAVTVNA
notes: VNAR on phage
Turning to B13, the binding result in test [1] is reported as “no binding”.

B14: Clone 60 (VNAR)
VNAR: ARVDQTPQTITKETGESLTINCVLRDSNCDLSRTYWYRKKSGSTNEESISKGGRYVETVNSGSKSFSLRINDLTVEDSGTYRCNVYNPGNGWAMYDVYGGGTAVTVNA
notes: VNAR on phage
For the molecule B14, the binding result in test [1] is listed as “no binding”.

B15: Clone 58 (VNAR)
VNAR: ARVDQTPQTITKETGESLTINCVLRDSNCELSSTYWYRKKSGSTNEARISKGGRYVETVNSGSKSFSLRINDLTVEDSGTYRCNVGFSQSWGNSVGIVDVYGGGTAVTVNE
notes: VNAR on phage
B15: the binding result in test [1] was “no binding”.

B16: Clone 55 (VNAR)
VNAR: PRVDQTPQTITKETGESLTINCVLRDSNCALSSTLWYRTKSGSRNEESISKGGRYVETVNSGSKSFSLRINDLTVEDSGTYRCNVWCLTLGCSGKWDVYGGGTAVTVNA
notes: VNAR on phage
In the case of B16, the binding result in test [1] is on record as “no binding”.

B17: Clone 32 (VNAR)
VNAR: ARVDQTPQTITKETGESLTINCVLRDSNCALSSTYWYRKKSGSTNEENISKGGRYVETVNSGSKSFSLRINDLTVEDSGTYRCNVQDMLTPNDGQLWDVYGDGTAVTVNA
notes: VNAR on phage
B17: the binding result in test [1] is “no binding”.

B18: Clone 54 (VNAR)
VNAR: ARVDQTPQTITKETGESLTINCVLRDSNCALPITYWYRKKSGSTNEESISKGGRYVETVNSGSKSFSLRINDLTVKDSGTYRCNVGAQYCDREISDVYGDGTAVTVNA
notes: VNAR on phage
For B18, the binding result in test [1] is given as “no binding”.

B19: Clone 52 (VNAR)
VNAR: PRVDQTPQTITKETGESLTINCVLRDSNCALSSTYWYRKKSGSTNEENISKGGRYVETVNSGSKSFSLRINDLTVEDSGTYRCNVAFFACQYKNDVYGGGTVVTVNA
notes: VNAR on phage
B19: the binding result in test [1] is “no binding”.

B20: Clone 46 (VNAR)
VNAR: ARVDQTPRVTKETGESLTINCVLRDASYELGSTCWYRKKSGSTNEESISKGGRYVETVNSGSKSFSLRINDLTVEDGGTYRCGASGSQGQVYRCDRLTLCCLQMQWQVAACGDGTAVTVNA
notes: VNAR on phage
Take B20: the binding result in test [1] was “no binding”.

B21: Clone 45 (VNAR)
VNAR: AVDQTPQTITKETGESLTINCVLRDSNCALSNLYWYRKKSDSTNEESISKGGRYVETVNSGSKSFSLRINDLTVEDSGTYRCNVCWWFSSRCTTCDVYGDGTAVTVNA
notes: VNAR on phage
For B21, in test [1], the binding result is on record as “no binding”.

B22: Clone 44 (VNAR)
VNAR: ARVDQTPRSVTKETGESLTINCVLRDASYELGSTCWYRKKSGSTNEESISKGGRYVETVNSGSKSFSLRINDLTVEDGGTYRCGAGSVQRSTSQCDRLWSRCWRTRFKIAACGDGTAVTVNA
notes: VNAR on phage
For B22, the binding result in test [1] is listed as “no binding”.

B23: Clone 49 (VNAR)
VNAR: ARVDQTPQTITKETGESLTINCVLRDSNCALPSTYWYRKKSGSTNEESISKGGRYVETVNSGSKSFSLKINDLTVEDSGTYRCNVQGRAAYSGLVCDVYGGGTAVTVNA
notes: VNAR on phage
For the molecule B23, the binding result in test [1] was “no binding”.

B24: Clone 57 (VNAR)
VNAR: ARVDQTPQTITKETGESLTINCVLRDSNCALPSTYWYRKKSGSTNEESISKGGRYVETVNSGSKSFSLRINDLTVEDSGTYRCNVRGFKQCYDLRLDVYGGGTAVTVNA
notes: VNAR on phage
As to B24, in test [1], the binding result is given as “no binding”.

B25: Clone 33 (VNAR)
VNAR: PRVDQTPQTITKETGESLTINCVLRDSNCALSNLYWYRKKSGSTNEESISKGGRYVETVNSGSKSFSLRINDLTVEDSGTYRCNVLVGMLSGCGFQRGDVYGGGTAVTVNA
notes: VNAR on phage
Take B25: in test [1], the binding result is reported as “no binding”.

B26: Clone 56 (VNAR)
VNAR: ARVDQTPQTITKETGESLTINCVLRDSNCALSSTYWYRKKSDSTNEESISKGGRYVETVNSGSKSFSLRINDLVVEDSGTYRCNVQSKEKLHCQVVVDVYGGGTAVTVNA
notes: VNAR on phage
Regarding B26, the binding result in test [1] is listed as “no binding”.

B27: Clone 48 (VNAR)
VNAR: ARVDQTPRSVTKETGESLTINCVLRDASYELGSTCWYRKKSGSTNEESISKGGRYVETVNSGSKSFSLRINDLTVEDGGTYRCGASFMLSHPGGCDSCVIMCQTRRQGVAACGDGTAVTVNA
notes: VNAR on phage
As for B27, in test [1], the binding result is on record as “no binding”.

B28: Clone 59 (VNAR)
VNAR: ARVDQTPQTITKETGESLTINCVLRDSNCALPSTYWYRKKSGSTNEESISKGGRYVETVNSGSKSFSLRINDLTVEDSGTYRCNVSLQFCCLSFDVYGGGTAVTVNA
notes: VNAR on phage
For B28, the binding result in test [1] was “no binding”.

B29: Clone 50 (VNAR)
VNAR: ARVDQTPQTITKETGESLTINCVLRDSNCALPSTYWYRKKSDSTNEESISKGGRYVETVNSGSKSFSLRINDLTVKDSGTYRCNVLIQCCSPTCDVYGGGTAVTVNA
notes: VNAR on phage
As to B29, the binding result in test [1] is recorded as “no binding”.

B30: Clone 38 (VNAR)
VNAR: ARVDQTPQTITKETGESLTINCVLRDSNCALPSTYWYRKKSGSTNEESISKGGRYVETVNSGSKSFSLKINDLTVEDSGTYRCNVRIIQCCVSQDVYGGGTVVTVNA
notes: VNAR on phage
Take B30: in test [1], the binding result is “no binding”.
